Measured values: patent US6861508B2, “Transcriptional intermediary factor-2” (Institut National de la Sante et de la Recherche Medicale, priority 1996, dated 2005)

How the values were obtained:
[1] = tested on: ER, RARα and RXRα LBDs; assay: GST pull-down of TIF2 polypeptides with NR LBDs; assay type: binding; details: in vitro, with or without 10^−6 M ligand
Procedure, shortened: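 In vitro GST-fusion pull-downs tested TIF2 deletion or point-mutant polypeptides against ER or RARα LBDs. Point-mutant binding was quantified relative to a TIF2.1 wildtype standard. Values are means of at least three experiments with SD.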

[2] = tested on: GAL4 reporter; assay: GAL4 DBD-TIF2 fusion CAT reporter transactivation assay; assay type: cell-based; details: Cos-1 and/or HeLa cells
Procedure, shortened: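 Transiently transfected HeLa and Cos-1 cells received plasmids (3 μg; 1-10 μg in titration) expressing TIF2 regions or mutants fused to GAL4 DBD(1-147), plus 1 μg (17m)5-G-CAT reporter. CAT activity measured by TLC phosphoimaging or CAT ELISA, normalized to cotransfected β-galactosidase, expressed as fold over GAL4 DBD alone; mean of ≥3 experiments.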

binding to NRs (ER, RARα LBDs) [1]: cannot bind NRs
B1: TIF2.2 (TIF2 amino acids 1288-1464) (other)
chain: NPRIPQANAQQFPFPPNYGISQQPDPGFTGATTPQSPLMSPRMAHTQSPMMQQSQANPAYQAPSDINGWAQGNMGGNSMFSQQSPPHFGQQANTSMYSNNMNINVSMATNTGGMSSMNQMTGQISMTSVTSVSTSGLSSMGPEQVNDPALRGGNLFPNQLPGMDMIKQEGDTTRKYC
notes: In-vitro-translated; also called AD2
transcriptional activation of GAL4 reporter by GAL4 DBD fusion [2]: able to activate transcription
